Target: the molecule itself
Assay: cryo-EM structure

B1: MtbClpX^E187Q (enzyme)
chain: not shown
notes: also called Walker B motif mutant MtbClpX
  stoichiometry N: 6
